# Laboratory results reported in US20040038297.
# T1: complement factor C4, P0C0L4
# T1 chain: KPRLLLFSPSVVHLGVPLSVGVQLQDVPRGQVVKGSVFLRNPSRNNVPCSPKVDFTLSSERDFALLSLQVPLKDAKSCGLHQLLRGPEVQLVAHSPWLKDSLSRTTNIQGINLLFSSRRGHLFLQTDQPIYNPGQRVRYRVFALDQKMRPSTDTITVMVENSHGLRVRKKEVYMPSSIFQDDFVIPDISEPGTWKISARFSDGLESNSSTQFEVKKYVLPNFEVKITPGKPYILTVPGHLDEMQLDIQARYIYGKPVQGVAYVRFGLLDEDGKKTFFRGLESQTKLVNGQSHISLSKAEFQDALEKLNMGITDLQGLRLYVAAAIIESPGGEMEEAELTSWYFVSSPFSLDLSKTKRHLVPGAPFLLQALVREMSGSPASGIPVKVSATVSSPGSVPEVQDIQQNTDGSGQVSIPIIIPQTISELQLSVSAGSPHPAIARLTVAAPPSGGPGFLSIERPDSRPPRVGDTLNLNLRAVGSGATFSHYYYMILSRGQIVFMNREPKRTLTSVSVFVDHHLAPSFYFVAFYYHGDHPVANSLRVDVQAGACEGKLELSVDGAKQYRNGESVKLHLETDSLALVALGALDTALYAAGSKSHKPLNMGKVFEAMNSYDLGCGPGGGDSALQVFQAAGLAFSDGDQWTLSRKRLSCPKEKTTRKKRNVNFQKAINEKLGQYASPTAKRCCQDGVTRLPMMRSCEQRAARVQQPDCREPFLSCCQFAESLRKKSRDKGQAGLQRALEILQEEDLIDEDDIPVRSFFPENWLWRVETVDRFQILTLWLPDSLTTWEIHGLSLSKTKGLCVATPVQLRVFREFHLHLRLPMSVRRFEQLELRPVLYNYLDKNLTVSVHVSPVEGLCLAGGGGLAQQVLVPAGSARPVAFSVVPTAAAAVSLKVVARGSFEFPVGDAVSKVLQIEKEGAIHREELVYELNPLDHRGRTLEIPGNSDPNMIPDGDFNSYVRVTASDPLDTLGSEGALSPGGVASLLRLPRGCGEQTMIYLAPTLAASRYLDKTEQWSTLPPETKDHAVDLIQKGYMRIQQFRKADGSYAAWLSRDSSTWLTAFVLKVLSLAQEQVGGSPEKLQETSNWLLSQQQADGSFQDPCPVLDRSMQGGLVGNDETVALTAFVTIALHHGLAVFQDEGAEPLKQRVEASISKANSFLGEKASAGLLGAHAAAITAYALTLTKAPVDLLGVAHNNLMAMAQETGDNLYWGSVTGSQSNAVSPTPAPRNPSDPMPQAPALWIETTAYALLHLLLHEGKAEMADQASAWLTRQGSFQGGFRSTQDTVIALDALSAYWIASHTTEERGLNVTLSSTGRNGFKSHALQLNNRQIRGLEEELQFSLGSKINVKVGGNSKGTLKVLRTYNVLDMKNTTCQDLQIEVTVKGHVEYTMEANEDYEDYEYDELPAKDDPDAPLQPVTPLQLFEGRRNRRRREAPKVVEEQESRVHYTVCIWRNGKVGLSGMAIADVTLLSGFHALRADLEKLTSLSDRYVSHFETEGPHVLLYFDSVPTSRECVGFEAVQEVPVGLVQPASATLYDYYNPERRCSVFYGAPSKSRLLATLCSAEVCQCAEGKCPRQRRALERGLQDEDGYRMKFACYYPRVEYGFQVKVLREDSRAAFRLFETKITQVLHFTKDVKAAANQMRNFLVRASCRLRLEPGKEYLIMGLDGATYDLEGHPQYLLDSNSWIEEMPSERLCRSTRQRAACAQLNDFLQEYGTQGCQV
# Target: T1, complement factor C4, P0C0L4
row,Protein,C4 deposition on a Western blot incubated with human serum (C4 converting activity)
1,mannan-binding lectin associated serine protease-2 (MASP-2) (protein) TPLGPKWPEPVFGRLASPGFPGEYANDQERRWTLTAPPGYRLRLYFTHFDLELSHLCEYDFVKLSSGAKVLATLCGQESTDTERAPGKDTFYSLGSSLDITFRSDYSNEKPFTGFEAFYAAEDIDECQVAPGEAPTCDHHCHNHLGGFYCSCRAGYVLHRNKRTCSALCSGQVFTQRSGELSSPEYPRPYPKLSSCTYSISLEEGFSVILDFVESFDVETHPETLCPYDFLKIQTDREEHGPFCGKTLPHRIETKSNTVTITFVTDESGDHTGWKIHYTSTAHACPYPMAPPNGHVSPVQAKYILKDSFSIFCETGYELLQGHLPLKSFTAVCQKDGSWDRPMPACSIVDCGPPDDLPSGRVEYITGPGVTTYKAVIQYSCEETFYTMKVNDGKYVCEADGFWTSSKGEKSLPVCEPVCGLSARTTGGRIYGGQKAKPGDFPWQVLILGGTTAAGALLYDNWVLTAAHAVYEQKHDASALDIRMGTLKRLSPHYTQAWSEAVFIHEGYTHDAGFDNDIALIKLNNKVVINSNITPICLPRKEAESFMRTDDIGTASGWGLTQRGFLARNLMYVDIPIVDHQKCTAAYEKPPYPRGSVTANMLCAGLESGGKDSCRGDSGGALVFLDSETERWFVGGIVSWGSMNCGEAGQYGVYTKVINYIPWIENIISDF,C4 was deposited at a position corresponding to the MASP-2 band
2,C1s (protein) EPTMYGEILSPNYPQAYPSEVEKSWDIEVPEGYGIHLYFTHLDIELSENCAYDSVQIISGDTEEGRLCGQRSSNNPHSPIVEEFQVPYNKLQVIFKSDFSNEERFTGFAAYYVATDINECTDFVDVPCSHFCNNFIGGYFCSCPPEYFLHDDMKNCGVNCSGDVFTALIGEIASPNYPKPYPENSRCEYQIRLEKGFQVVVTLRREDFDVEAADSAGNCLDSLVFVAGDRQFGPYCGHGFPGPLNIETKSNALDIIFQTDLTGQKKGWKLRYHGDPMPCPKEDTPNSVWEPAKAKYVFRDVVQITCLDGFEVVEGRVGATSFYSTCQSNGKWSNSKLKCQPVDCGIPESIENGKVEDPESTLFGSVIRYTCEEPYYYMENGGGGEYHCAGNGSWVNEVLGPELPKCVPVCGVPREPFEEKQRIIGGSDADIKNFPWQVFFDNPWAGGALINEYWVLTAAHVVEGNREPTMYVGSTSVQTSRLAKSKMLTPEHVFIHPGWKLLEVPEGRTNFDNDIALVRLKDPVKMGPTVSPICLPGTSSDYNLMDGDLGLISGWGRTEKRDRAVRLKAARLPVAPLRKCKEVKVEKPTADAEAYVFTPNMICAGGEKGMDSCKGDSGGAFAVQDPNDKTKFYAAGLVSWGPQCGTYGLYTRVKNYVDWIMKTMQENSTPRED,"C4 deposition, which could be inhibited by enzyme inhibitors, was observed at a position corresponding to C1r and C1s, which are not separated by the technique employed"
3,MASP-1 (MBP-associated serine protease) (protein) HTVELNNMFGQIQSPGYPDSYPSDSEVTWNITVPDGFRIKLYFMHFNLESSYLCEYDYVKVETEDQVLATFCGRETTDTEQTPGQEVVLSPGSFMSITFRSDFSNEERFTGFDAHYMAVDVDECKEREDEELSCDHYCHNYIGGYYCSCRFGYILHTDNRTCRVECSDNLFTQRTGVITSPDFPNPYPKSSECLYTIELEEGFMVNLQFEDIFDIEDHPEVPCPYDYIKIKVGPKVLGPFCGEKAPEPISTQSHSVLILFHSDNSGENRGWRLSYRAAGNECPELQPPVHGKIEPSQAKYFFKDQVLVSCDTGYKVLKDNVEMDTFQIECLKDGTWSNKIPTCKIVDCRAPGELEHGLITFSTRNNLTTYKSEIKYSCQEPYYKMLNNNTGIYTCSAQGVWMNKVLGRSLPTCLPVCGLPKFSRKLMARIFNGRPAQKGTTPWIAMLSHLNGQPFCGGSLLGSSWIVTAAHCLHQSLDPEDPTLRDSDLLSPSDFKIILGKHWRLRSDENEQHLGVKHTTLHPQYDPNTFENDVALVELLESPVLNAFVMPICLPEGPQQEGAMVIVSGWGKQFLQRFPETLMEIEIPIVDHSTCQKAYAPLKKKVTRDMICAGEKEGGKDACAGDSGGPMVTLNRERGQWYLVGTVSWGDDCGKKDRYGVYSYIHHNKDWIQRVTGVRN,no C4 deposition was observed at positions corresponding to MASP-1
